In US20080274967:
Numbering of substitutions follows the chain as printed.

Experiments:
[1] = tested on: T1, PEDF S24,114E variant
T1 sequence: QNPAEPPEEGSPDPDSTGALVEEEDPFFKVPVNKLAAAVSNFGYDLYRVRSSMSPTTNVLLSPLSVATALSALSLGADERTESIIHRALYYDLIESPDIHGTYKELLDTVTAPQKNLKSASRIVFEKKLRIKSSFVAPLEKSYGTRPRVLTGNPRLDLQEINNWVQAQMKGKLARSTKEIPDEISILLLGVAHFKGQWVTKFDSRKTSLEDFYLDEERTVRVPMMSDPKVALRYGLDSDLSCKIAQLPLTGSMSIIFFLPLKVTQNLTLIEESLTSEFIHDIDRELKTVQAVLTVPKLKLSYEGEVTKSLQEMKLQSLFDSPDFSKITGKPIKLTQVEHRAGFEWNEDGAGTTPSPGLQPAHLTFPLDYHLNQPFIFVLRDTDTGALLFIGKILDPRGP

[2] = tested on: T2, PEDF AAA variant (S24,114, 227A)
T2 sequence: T1 sequence with E5A, E95A, S208A

[3] = tested on: T3, PEDF EEE variant (S24,114, 227E)
T3 sequence: T1 sequence with S208E

[4] = tested on: T4, PEDF EEA variant (S24,114E, 227A)
T4 sequence: T1 sequence with S208A

[5] = tested on: T5, PEDF AAE variant (S24,114A, 227E)
T5 sequence: T1 sequence with E5A, E95A, S208E

[6] = tested on: T6, Recombinant human pigment epithelium derived factor (rPEDF)
T6 sequence: T1 sequence with E5S, E95S

With “Catalytic subunit of protein kinase A (PKA)” the “in vitro phosphorylation by PKA after brief heat treatment of the variant” value [1] was “a brief heat treatment ... restored its phosphorylation by PKA”, the “in vitro phosphorylation by PKA” value [2] was “none of the triple mutants was phosphorylated by PKA” and the “in vitro phosphorylation by PKA” value [3] was “none of the triple mutants was phosphorylated by PKA”. For the same substance, the “in vitro phosphorylation by PKA” value [4] was “none of the triple mutants was phosphorylated by PKA”, the “in vitro phosphorylation by PKA” value [5] was “none of the triple mutants was phosphorylated by PKA” and the “in vitro phosphorylation by PKA ([γ32P]-ATP, SDS-PAGE, autoradiography)” value [6] was “rPEDF served as a good substrate to PKA”.
